Results reported in patent publication US20180009871A1 (INTARCIA THERAPEUTICS, published 2018).
Where no end group is shown, it is not given here. [ ]: non-standard residue; d: D form. Aib = CC(C)(N)C(=O)O

How the values were obtained:
[1] = target: human GLP-1 receptor (GLP-1R) (human, UniProt P43220 24-463); assay: cell-based or functional assay
[2] = target: human glucagon receptor (GCGR) (human, UniProt P47871 26-477); assay: cell-based or functional assay

Sequence of human GLP-1 receptor (GLP-1R) (P43220 24-463): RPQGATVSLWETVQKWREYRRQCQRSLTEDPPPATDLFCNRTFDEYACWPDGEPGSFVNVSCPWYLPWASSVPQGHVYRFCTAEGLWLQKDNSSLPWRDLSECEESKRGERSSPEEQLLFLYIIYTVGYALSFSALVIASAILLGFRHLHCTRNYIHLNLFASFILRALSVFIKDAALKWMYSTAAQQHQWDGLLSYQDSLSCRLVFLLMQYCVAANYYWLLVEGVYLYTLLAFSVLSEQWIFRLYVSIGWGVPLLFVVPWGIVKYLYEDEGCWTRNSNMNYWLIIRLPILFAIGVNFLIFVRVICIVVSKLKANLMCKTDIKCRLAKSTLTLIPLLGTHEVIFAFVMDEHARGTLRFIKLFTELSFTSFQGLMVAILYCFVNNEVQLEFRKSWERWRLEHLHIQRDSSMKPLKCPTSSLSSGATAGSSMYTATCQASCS

B1: Compound A79 (peptide)
peptide: YSHGTFTSDYSKYLD[Aib]KEAQEFV[Aib]WLEDEPSSGAPPPS-OH
modifications: N-terminus assumed
SMILES: CC(C)C[C@H](NC(=O)[C@H](Cc1ccc(O)cc1)NC(=O)[C@H](CCCCN)NC(=O)[C@H](CO)NC(=O)[C@H](Cc1ccc(O)cc1)NC(=O)[C@H](CC(=O)O)NC(=O)[C@H](CO)NC(=O)[C@@H](NC(=O)[C@H](Cc1ccccc1)NC(=O)[C@@H](NC(=O)CNC(=O)[C@H](Cc1c[nH]cn1)NC(=O)[C@H](CO)NC(=O)[C@@H](N)Cc1ccc(O)cc1)[C@@H](C)O)[C@@H](C)O)C(=O)N[C@@H](CC(=O)O)C(=O)NC(C)(C)C(=O)N[C@@H](CCCCN)C(=O)N[C@@H](CCC(=O)O)C(=O)N[C@@H](C)C(=O)N[C@@H](CCC(N)=O)C(=O)N[C@@H](CCC(=O)O)C(=O)N[C@@H](Cc1ccccc1)C(=O)N[C@H](C(=O)NC(C)(C)C(=O)N[C@@H](Cc1c[nH]c2ccccc12)C(=O)N[C@@H](CC(C)C)C(=O)N[C@@H](CCC(=O)O)C(=O)N[C@@H](CC(=O)O)C(=O)N[C@@H](CCC(=O)O)C(=O)N1CCC[C@H]1C(=O)N[C@@H](CO)C(=O)N[C@@H](CO)C(=O)NCC(=O)N[C@@H](C)C(=O)N1CCC[C@H]1C(=O)N1CCC[C@H]1C(=O)N1CCC[C@H]1C(=O)N[C@@H](CO)C(=O)O)C(C)C
hGLP1 pEC50 (cAMP) [1]: < 9 pEC50 | hGCGR pEC50 (cAMP) [2]: 10.2 pEC50

B2: Compound A1 (peptide)
peptide: YSHGTFTSDYSKYLD[Aib]KYAQEFV[Aib]WLEDEPSSGAPPPS-OH
modifications: N-terminus assumed
SMILES: CC(C)C[C@H](NC(=O)[C@H](Cc1ccc(O)cc1)NC(=O)[C@H](CCCCN)NC(=O)[C@H](CO)NC(=O)[C@H](Cc1ccc(O)cc1)NC(=O)[C@H](CC(=O)O)NC(=O)[C@H](CO)NC(=O)[C@@H](NC(=O)[C@H](Cc1ccccc1)NC(=O)[C@@H](NC(=O)CNC(=O)[C@H](Cc1c[nH]cn1)NC(=O)[C@H](CO)NC(=O)[C@@H](N)Cc1ccc(O)cc1)[C@@H](C)O)[C@@H](C)O)C(=O)N[C@@H](CC(=O)O)C(=O)NC(C)(C)C(=O)N[C@@H](CCCCN)C(=O)N[C@@H](Cc1ccc(O)cc1)C(=O)N[C@@H](C)C(=O)N[C@@H](CCC(N)=O)C(=O)N[C@@H](CCC(=O)O)C(=O)N[C@@H](Cc1ccccc1)C(=O)N[C@H](C(=O)NC(C)(C)C(=O)N[C@@H](Cc1c[nH]c2ccccc12)C(=O)N[C@@H](CC(C)C)C(=O)N[C@@H](CCC(=O)O)C(=O)N[C@@H](CC(=O)O)C(=O)N[C@@H](CCC(=O)O)C(=O)N1CCC[C@H]1C(=O)N[C@@H](CO)C(=O)N[C@@H](CO)C(=O)NCC(=O)N[C@@H](C)C(=O)N1CCC[C@H]1C(=O)N1CCC[C@H]1C(=O)N1CCC[C@H]1C(=O)N[C@@H](CO)C(=O)O)C(C)C
hGLP1 pEC50 (cAMP) [1]: 5.2 pEC50 | hGCGR pEC50 (cAMP) [2]: 12.3 pEC50

B3: Compound A2 (peptide)
peptide: YSHGTFTSDYSKYLD[Aib]KSAQEFV[Aib]WLEDEPSSGAPPPS-OH
modifications: N-terminus assumed
SMILES: CC(C)C[C@H](NC(=O)[C@H](Cc1ccc(O)cc1)NC(=O)[C@H](CCCCN)NC(=O)[C@H](CO)NC(=O)[C@H](Cc1ccc(O)cc1)NC(=O)[C@H](CC(=O)O)NC(=O)[C@H](CO)NC(=O)[C@@H](NC(=O)[C@H](Cc1ccccc1)NC(=O)[C@@H](NC(=O)CNC(=O)[C@H](Cc1c[nH]cn1)NC(=O)[C@H](CO)NC(=O)[C@@H](N)Cc1ccc(O)cc1)[C@@H](C)O)[C@@H](C)O)C(=O)N[C@@H](CC(=O)O)C(=O)NC(C)(C)C(=O)N[C@@H](CCCCN)C(=O)N[C@@H](CO)C(=O)N[C@@H](C)C(=O)N[C@@H](CCC(N)=O)C(=O)N[C@@H](CCC(=O)O)C(=O)N[C@@H](Cc1ccccc1)C(=O)N[C@H](C(=O)NC(C)(C)C(=O)N[C@@H](Cc1c[nH]c2ccccc12)C(=O)N[C@@H](CC(C)C)C(=O)N[C@@H](CCC(=O)O)C(=O)N[C@@H](CC(=O)O)C(=O)N[C@@H](CCC(=O)O)C(=O)N1CCC[C@H]1C(=O)N[C@@H](CO)C(=O)N[C@@H](CO)C(=O)NCC(=O)N[C@@H](C)C(=O)N1CCC[C@H]1C(=O)N1CCC[C@H]1C(=O)N1CCC[C@H]1C(=O)N[C@@H](CO)C(=O)O)C(C)C
hGLP1 pEC50 (cAMP) [1]: 5.4 pEC50 | hGCGR pEC50 (cAMP) [2]: 11.7 pEC50

YSQGTFTSDYSKYLDAARAQEFVKWLEDEPKSKSPPPS-NH2 [Compound A3]
hGLP1 pEC50 (cAMP) [1]: 6.7 pEC50 | hGCGR pEC50 (cAMP) [2]: 12.1 pEC50

B4: Compound A4 (peptide)
peptide: YSHGTFTSDYSKYLD[Aib]KRAQEFVIWLEDEPSSGAPPPS-OH
modifications: N-terminus assumed
SMILES: CC[C@H](C)[C@H](NC(=O)[C@@H](NC(=O)[C@H](Cc1ccccc1)NC(=O)[C@H](CCC(=O)O)NC(=O)[C@H](CCC(N)=O)NC(=O)[C@H](C)NC(=O)[C@H](CCCNC(=N)N)NC(=O)[C@H](CCCCN)NC(=O)C(C)(C)NC(=O)[C@H](CC(=O)O)NC(=O)[C@H](CC(C)C)NC(=O)[C@H](Cc1ccc(O)cc1)NC(=O)[C@H](CCCCN)NC(=O)[C@H](CO)NC(=O)[C@H](Cc1ccc(O)cc1)NC(=O)[C@H](CC(=O)O)NC(=O)[C@H](CO)NC(=O)[C@@H](NC(=O)[C@H](Cc1ccccc1)NC(=O)[C@@H](NC(=O)CNC(=O)[C@H](Cc1c[nH]cn1)NC(=O)[C@H](CO)NC(=O)[C@@H](N)Cc1ccc(O)cc1)[C@@H](C)O)[C@@H](C)O)C(C)C)C(=O)N[C@@H](Cc1c[nH]c2ccccc12)C(=O)N[C@@H](CC(C)C)C(=O)N[C@@H](CCC(=O)O)C(=O)N[C@@H](CC(=O)O)C(=O)N[C@@H](CCC(=O)O)C(=O)N1CCC[C@H]1C(=O)N[C@@H](CO)C(=O)N[C@@H](CO)C(=O)NCC(=O)N[C@@H](C)C(=O)N1CCC[C@H]1C(=O)N1CCC[C@H]1C(=O)N1CCC[C@H]1C(=O)N[C@@H](CO)C(=O)O
hGLP1 pEC50 (cAMP) [1]: < 5 pEC50 | hGCGR pEC50 (cAMP) [2]: 11.8 pEC50

YSHGTFTSDYSKYLDSARAQEFVKWLEDEPSSGAPPPS-NH2 [Compound A5]
hGLP1 pEC50 (cAMP) [1]: 5.8 pEC50 | hGCGR pEC50 (cAMP) [2]: 11.8 pEC50

B5: Compound A6 (peptide)
peptide: WSQGTFTSDYSKYLD[Aib]KRAQEFV[Aib]WLEDEPSSGAPPPS-OH
modifications: N-terminus assumed
SMILES: CC(C)C[C@H](NC(=O)[C@H](Cc1ccc(O)cc1)NC(=O)[C@H](CCCCN)NC(=O)[C@H](CO)NC(=O)[C@H](Cc1ccc(O)cc1)NC(=O)[C@H](CC(=O)O)NC(=O)[C@H](CO)NC(=O)[C@@H](NC(=O)[C@H](Cc1ccccc1)NC(=O)[C@@H](NC(=O)CNC(=O)[C@H](CCC(N)=O)NC(=O)[C@H](CO)NC(=O)[C@@H](N)Cc1c[nH]c2ccccc12)[C@@H](C)O)[C@@H](C)O)C(=O)N[C@@H](CC(=O)O)C(=O)NC(C)(C)C(=O)N[C@@H](CCCCN)C(=O)N[C@@H](CCCNC(=N)N)C(=O)N[C@@H](C)C(=O)N[C@@H](CCC(N)=O)C(=O)N[C@@H](CCC(=O)O)C(=O)N[C@@H](Cc1ccccc1)C(=O)N[C@H](C(=O)NC(C)(C)C(=O)N[C@@H](Cc1c[nH]c2ccccc12)C(=O)N[C@@H](CC(C)C)C(=O)N[C@@H](CCC(=O)O)C(=O)N[C@@H](CC(=O)O)C(=O)N[C@@H](CCC(=O)O)C(=O)N1CCC[C@H]1C(=O)N[C@@H](CO)C(=O)N[C@@H](CO)C(=O)NCC(=O)N[C@@H](C)C(=O)N1CCC[C@H]1C(=O)N1CCC[C@H]1C(=O)N1CCC[C@H]1C(=O)N[C@@H](CO)C(=O)O)C(C)C
hGLP1 pEC50 (cAMP) [1]: 5.3 pEC50 | hGCGR pEC50 (cAMP) [2]: 11.7 pEC50

B6: Compound A7 (peptide)
peptide: YSHGTFTSDYSKYLD[Aib]ARAQEFV[Aib]WLEDEPSSGAPPPS-OH
modifications: N-terminus assumed
SMILES: CC(C)C[C@H](NC(=O)[C@H](Cc1ccc(O)cc1)NC(=O)[C@H](CCCCN)NC(=O)[C@H](CO)NC(=O)[C@H](Cc1ccc(O)cc1)NC(=O)[C@H](CC(=O)O)NC(=O)[C@H](CO)NC(=O)[C@@H](NC(=O)[C@H](Cc1ccccc1)NC(=O)[C@@H](NC(=O)CNC(=O)[C@H](Cc1c[nH]cn1)NC(=O)[C@H](CO)NC(=O)[C@@H](N)Cc1ccc(O)cc1)[C@@H](C)O)[C@@H](C)O)C(=O)N[C@@H](CC(=O)O)C(=O)NC(C)(C)C(=O)N[C@@H](C)C(=O)N[C@@H](CCCNC(=N)N)C(=O)N[C@@H](C)C(=O)N[C@@H](CCC(N)=O)C(=O)N[C@@H](CCC(=O)O)C(=O)N[C@@H](Cc1ccccc1)C(=O)N[C@H](C(=O)NC(C)(C)C(=O)N[C@@H](Cc1c[nH]c2ccccc12)C(=O)N[C@@H](CC(C)C)C(=O)N[C@@H](CCC(=O)O)C(=O)N[C@@H](CC(=O)O)C(=O)N[C@@H](CCC(=O)O)C(=O)N1CCC[C@H]1C(=O)N[C@@H](CO)C(=O)N[C@@H](CO)C(=O)NCC(=O)N[C@@H](C)C(=O)N1CCC[C@H]1C(=O)N1CCC[C@H]1C(=O)N1CCC[C@H]1C(=O)N[C@@H](CO)C(=O)O)C(C)C
hGLP1 pEC50 (cAMP) [1]: < 9 pEC50 | hGCGR pEC50 (cAMP) [2]: 11.9 pEC50

B7: Compound A8 (peptide)
peptide: YSHGTFTSDYSKYLD[Aib]KRAQEFV[Aib]WLEDEPSSGAPPPS-NH2
modifications: N-terminus assumed
SMILES: CC(C)C[C@H](NC(=O)[C@H](Cc1ccc(O)cc1)NC(=O)[C@H](CCCCN)NC(=O)[C@H](CO)NC(=O)[C@H](Cc1ccc(O)cc1)NC(=O)[C@H](CC(=O)O)NC(=O)[C@H](CO)NC(=O)[C@@H](NC(=O)[C@H](Cc1ccccc1)NC(=O)[C@@H](NC(=O)CNC(=O)[C@H](Cc1c[nH]cn1)NC(=O)[C@H](CO)NC(=O)[C@@H](N)Cc1ccc(O)cc1)[C@@H](C)O)[C@@H](C)O)C(=O)N[C@@H](CC(=O)O)C(=O)NC(C)(C)C(=O)N[C@@H](CCCCN)C(=O)N[C@@H](CCCNC(=N)N)C(=O)N[C@@H](C)C(=O)N[C@@H](CCC(N)=O)C(=O)N[C@@H](CCC(=O)O)C(=O)N[C@@H](Cc1ccccc1)C(=O)N[C@H](C(=O)NC(C)(C)C(=O)N[C@@H](Cc1c[nH]c2ccccc12)C(=O)N[C@@H](CC(C)C)C(=O)N[C@@H](CCC(=O)O)C(=O)N[C@@H](CC(=O)O)C(=O)N[C@@H](CCC(=O)O)C(=O)N1CCC[C@H]1C(=O)N[C@@H](CO)C(=O)N[C@@H](CO)C(=O)NCC(=O)N[C@@H](C)C(=O)N1CCC[C@H]1C(=O)N1CCC[C@H]1C(=O)N1CCC[C@H]1C(=O)N[C@@H](CO)C(N)=O)C(C)C
hGLP1 pEC50 (cAMP) [1]: < 9 pEC50 | hGCGR pEC50 (cAMP) [2]: 12.3 pEC50
